Tests used:
[1] = molecular target: Ubiquitin, human, recombinant, His-tag (His6-Ub) (human, UniProt P0CG48 1-76); test: MST
[2] = molecular target: Ubiquitin, human, recombinant (tag-free mono-Ub) (human, UniProt P0CG48 1-76); test: MST

B1: HDAC6-EGFP WT (full-length human histone deacetylase 6 fused to EGFP) (enzyme)
chain: MTSTGQDSTTTRQRRSRQNPQSPPQDSSVTSKRNIKKGAVPRSIPNLAEVKKKGKMKKLGQAMEEDLIVGLQGMDLNLEAEALAGTGLVLDEQLNEFHCLWDDSFPEGPERLHAIKEQLIQEGLLDRCVSFQARFAEKEELMLVHSLEYIDLMETTQYMNEGELRVLADTYDSVYLHPNSYSCACLASGSVLRLVDAVLGAEIRNGMAIIRPPGHHAQHSLMDGYCMFNHVAVAARYAQQKHRIRRVLIVDWDVHHGQGTQFTFDQDPSVLYFSIHRYEQGRFWPHLKASNWSTTGFGQGQGYTINVPWNQVGMRDADYIAAFLHVLLPVALEFQPQLVLVAAGFDALQGDPKGEMAATPAGFAQLTHLLMGLAGGKLILSLEGGYNLRALAEGVSASLHTLLGDPCPMLESPGAPCRSAQASVSCALEALEPFWEVLVRSTETVERDNMEEDNVEESEEEGPWEPPVLPILTWPVLQSRTGLVYDQNMMNHCNLWDSHHPEVPQRILRIMCRLEELGLAGRCLTLTPRPATEAELLTCHSAEYVGHLRATEKMKTRELHRESSNFDSIYICPSTFACAQLATGAACRLVEAVLSGEVLNGAAVVRPPGHHAEQDAACGFCFFNSVAVAARHAQTISGHALRILIVDWDVHHGNGTQHMFEDDPSVLYVSLHRYDHGTFFPMGDEGASSQIGRAAGTGFTVNVAWNGPRMGDADYLAAWHRLVLPIAYEFNPELVLVSAGFDAARGDPLGGCQVSPEGYAHLTHLLMGLASGRIILILEGGYNLTSISESMAACTRSLLGDPPPLLTLPRPPLSGALASITETIQVHRRYWRSLRVMKVEDREGPSSSKLVTKKAPQPAKPRLAERMTTREKKVLEAGMGKVTSASFGEESTPGQTNSETAVVALTQDQPSEAATGGATLAQTISEAAIGGAMLGQTTSEEAVGGATPDQTTSEETVGGAILDQTTSEDAVGGATLGQTTSEEAVGGATLAQTTSEAAMEGATLDQTTSEEAPGGTELIQTPLASSTDHQTPPTSPVQGTTPQISPSTLIGSLRTLELGSESQGASESQAPGEENLLGEAAGGQDMADSMLMQGSRGLTDQAIFYAVTPLPWCPHLVAVCPIPAAGLDVTQPCGDCGTIQENWVCLSCYQVYCGRYINGHMLQHHGNSGHPLVLSYIDLSAWCYYCQAYVHHQALLDVKNIAHQNKFGEDMPHPH
Kd [1]: 0.069 µM
Kd [2]: 1.25 ± 0.147 µM
